# Test results reported in the supplement of paper PMC12042874.
# ± gives the uncertainty stated by the source.
# Assay: amyloid nucleation score (Sup35N fusion, yeast selection) (log enrichment); library NNK3; higher = more nucleation; inactive = no reads after selection
# Outline: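 Growth for 7 days at 30°C on medium lacking adenine and uracil followed a 24-hour induction with 100 μM copper sulfate of psi-negative yeast expressing peptides of 20 random codons fused to Sup35N. Input and output plasmid inserts were sequenced with Illumina, and sequences with under 100 input reads were excluded. Nucleation score is the DiMSum log enrichment of output over input reads, centred on the mode score of non-aggregating sequences.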
row,Substance,amyloid nucleation score
1,LLSILTWVSIYRRCFSFTAR,-0.758 ± 0.88
2,AYRSKLKLCSYWIMGCVHPL,inactive
3,MVDVNLAKRNGMNQSLHGNS,inactive
4,VFSKSLGI,inactive
5,QYFFNRKL,inactive
6,TRRSKGQFIYCPSNGMKCSG,inactive
7,LNDDLCSRVFWVYEYHECQV,inactive
8,SSLAGMQEDC,inactive
9,CMKLYRHFLNKASVHSDKGV,inactive
10,TYGGLFLVHTVYVVALNWVR,inactive
11,RSTTTMEYWFSCAVYSPKSV,0.682 ± 0.12
12,MPCNVKYSTVCFTA,inactive
13,IYCVNSSAFVLEPF,inactive
14,LQSSMSIYSQFWSVDSLFYE,0.04 ± 0.66
15,PAELGVVSMCGFLGSAAYQE,inactive
16,DSSSDGSLTYDRGRSRSLFE,inactive
17,SVSVLV,inactive
18,NFSIYYLDLISR,1.95 ± 0.098
19,GSGIINDMGFRWIFFMWVMA,inactive
20,RHAPNVLKYLAHFNDYRQWH,inactive
21,SKLWSYWDLSWLTLKVGWLR,inactive
22,RYAHRSKRNTSWHVYMFKVV,inactive
23,AVTKNVTERFHMLMPKDWVG,inactive

row,Substance,amyloid nucleation score
1,AAETLTRSWLLRSARLMKDG,-0.233 ± 1.4
2,SFRDPHLTHSSVDCRTVYHI,inactive
3,KYIQIDKVFH,inactive
4,CSCYENFELVPGFRRCRGMV,inactive
5,LQLRSLF,inactive
6,SVGCPVVRTQFILSPGQTSN,inactive
7,SGVGCKSLFWSSVAYMSIWG,inactive
8,RQWQGNFSSVGFLEIKDALF,inactive
9,TAAYSLFIEVSCSQSTN,inactive
10,GKPWGTGSLVLWYLYDEDCA,inactive
11,CRVAMILSCFTMVFCSQAAT,1.5 ± 0.081
12,TINRLLICI,-0.14 ± 0.57
13,VLDFRRPRNISRS,inactive
14,RTHRRKSDTVMLES,inactive
15,NLSSNVLTAALK,inactive
16,KMDQYCWGFFVSWYMRKKVF,inactive
17,SRGEKNSNFTWTNDFDFFRV,inactive
18,LQVVNLSR,inactive
19,VCVVWNIVDQAYNMW,0.253 ± 0.34
20,TAEKSGVGLFGGTSVFLFES,inactive
21,YSCLRLYATNHVTLWICELK,inactive
22,CGNTSIV,inactive
23,AASNTAFNYLSTRPIMRWLA,inactive

row,Substance,amyloid nucleation score
1,HNNIAFSLVVNDESVLWCFN,1.97 ± 0.053
2,AGYNYASKSNTLESQTACCS,inactive
3,LRFNVDAMFSTSVVRIQKCL,inactive
4,FLNVKIQNHWRPYPFSPEYA,1.16 ± 0.092
5,VRLNALIHDIVMMVWGTMHG,inactive
6,TVYSRHIDRGYWIADGCSRV,inactive
7,SSFLWTVWGFSNNPCCSSVA,2.46 ± 0.051
8,VINKRRWTSNGNCILEVRHG,inactive
9,LRMHWDTYERSVDTIASVVH,inactive
10,SFCECFQSSKSCKIWTVWIV,inactive
11,EFQNFLVSFYEMYLQSPK,inactive
12,PSGTFFNSVVYGRWYKLKRK,-0.34 ± 0.93
13,HFILVNIAFLVTDPHWLVRV,inactive
14,TLTRVRTRCTKWRFICNCPM,0.254 ± 0.34
15,CLVVKLFHTSSCMNSYMRGG,1.67 ± 0.11
16,SLLYEEPEVLINNSSGSAS,inactive
17,INDLQTSPR,inactive
18,VRSTYGNKGFVSQRGLQFSP,inactive
19,IVFNGLRSMNRE,inactive
20,LVNELAQVVVCLGSRSTVLG,inactive
21,LTKYVVFSIY,1.16 ± 0.094
22,SSGPLALVL,inactive
23,IYAPRR,inactive

row,Substance,amyloid nucleation score
1,FWFYATLMGEQDK,-0.331 ± 0.9
2,RPFSPVVLMVYGKKRRTWTR,inactive
3,IVERKVRPAHFYYSLVYEQS,inactive
4,TNGLVLHRSWLEFFLYYTQR,inactive
5,SWCCR,1.4 ± 0.1
6,LVLRGKRSDV,inactive
7,YVCGLRRKSLVGKLYSIGLS,inactive
8,SRCFWQSLEVTVILGSCINT,1.64 ± 0.11
9,TGYLQLYRTADDRGLEYCIM,inactive
10,DGVLNRSNDHPVQTPWPWFW,inactive
11,LMLGYLKYLYGAANRICYRS,inactive
12,PHSYA,inactive
13,QYLSRCLTWSYVTVKSLRSN,inactive
14,GCFVNN,inactive
15,ASSSQGRDYVCMSYNFIGGV,-0.551 ± 0.55
16,SSAELV,inactive
17,ECMRNTPLTQSTATTMTTGF,inactive
18,CTRHLQMFVNIF,2.23 ± 0.056
19,RSVVVLT,inactive
20,EWTVNMNSYLLVSVAYGCGS,inactive
21,CRYESVYLNVEILPVTVAVV,inactive
22,NRKRFGEMNGRNYSVQGGRW,inactive
23,TRYPFQWLLRVGWKGAHLGM,inactive

row,Substance,amyloid nucleation score
1,FNERIRTNLFDSWTMWGMCF,inactive
2,DITRGCGVKDRKVVPASGLA,inactive
3,HVNMSNIVLVLFSNSFNMHE,1.75 ± 0.082
4,VGDVKAISVGCVGVLEFSAA,inactive
5,LTVCV,inactive
6,PGSHNS,inactive
7,LGVHWNPFIWVSSDARQNSR,-0.089 ± 0.96
8,IMVWLRARSITYNQVDDRGS,inactive
9,VQVMETEMRSVVA,inactive
10,SLVTRGLPVCRFRSDSDYSI,inactive
11,FNSMYRVELVHCCSHNKICD,1.41 ± 0.1
12,TKFIMKRLLVERVSCFLRSH,inactive
13,VLRQDISDDQSEAPEMNPHR,inactive
14,YYMRDCSYIHEFGTGVASDR,inactive
15,YSVIMPCSNLNWVDMNLTEY,-0.169 ± 0.29
16,LSFYTFGNNWTKRCNCPTAS,inactive
17,ARVRFSLKRSCMLVHA,inactive
18,RSNYRGYFK,-0.498 ± 1.4
19,RDIVVNRLVRACSLGFLCLG,-0.792 ± 1.4
20,PRASYMGRSKL,inactive
21,RHNVRCYCLGLMPNAPVDKL,inactive
22,DFNLNEVDTDMGFSLSESL,inactive
23,LMGTQVVFDDTDPYTEKGLL,inactive

row,Substance,amyloid nucleation score
1,IWMWLKTQSISRLGTGRTTN,inactive
2,YWSNSYGIECCRLVQQAPTE,-0.132 ± 0.33
3,VVLVFLRVTRYPSQKMVSAL,inactive
4,NRISMFLNRT,inactive
5,REKLDQP,inactive
6,SIGYDCLQSGAFKSLHTMAL,inactive
7,GVCSLCKTLR,inactive
8,AYLSFLLFCCCKTLVWLVLR,0.841 ± 0.13
9,MERVRGRRMGVIVAFDVDGW,1.11 ± 0.19
10,YKRRKTVNWHQDCTAIFGGN,inactive
11,YSKCNRIFFTEDLF,-0.295 ± 0.8
12,QNGDKHYG,inactive
13,QLHNYARMKAQLLAVQV,inactive
14,KSFELYSKNVMYDSVLGVCL,inactive
15,PFWSGMIPIIEDPISGAL,inactive
16,KVGIF,inactive
17,RLANKFSMTSGT,inactive
18,CVVELHHVCRVPMCPFCWTV,inactive
19,IAYNMCEIYVRVCYYFPIIC,inactive
20,SHGHYCIVFVFTRL,inactive
21,HYNSSSFRVGPCVSLGNHTQ,inactive
22,DRCGVFNTPYLVNSELILC,inactive
23,FTSVMKNNV,inactive

row,Substance,amyloid nucleation score
1,LKTTDLLPQVTCPHLCILFL,0.808 ± 0.23
2,GTAIIEGTM,inactive
3,ATIGRVRGLKDPHLYQCAFM,inactive
4,RSALRVM,inactive
5,SSGSPFNCWHSLHCSSRPFK,inactive
6,FFTRSNVLRSVCFSSPITLW,inactive
7,VVATILLVHPPVKHWSCDLM,-0.859 ± 0.73
8,RSFVVNYWGFSDMLHFCRLC,inactive
9,QAKGIRYVGGLTWYNH,inactive
10,YRHPTIECWSKMRCALVVCT,inactive
11,HICIMNMLRFRCIWIPIFYM,inactive
12,WPYGIVTLRTWANYLGLFTL,-0.796 ± 1.1
13,SLESWFVTRRCSRYESTFMS,inactive
14,DDDHKIKLLLSGGL,inactive
15,VERHFAVDERP,-0.682 ± 2.5
16,AVLEMQLTIW,inactive
17,WIRSNATFNATGVKFSSTCH,inactive
18,CVFDSCSSLYKDMYTLCHVS,inactive
19,KFLLTWK,inactive
20,NDGPKVARMGSVR,inactive
